Data taken from patent US8871909B2, “Antibodies inhibiting c-Met dimerization and uses thereof” (Pierre Fabre Medicament, priority 2007, dated 2014).

Experiments:
MDA-MB-231 = MDA-MB-231 cells co-implanted with MRC5 cells xenograft; assay type: in vivo, Athymic nude mice; conditions: 2 mg loading dose then 1 mg twice a week i.p.
Procedure: […] and MRC5 cells from ATCC were both cultured in DMEM medium, 10% FCS, 1% L-Glutamine. Cells were split two days before engraftment being in exponential phase of growth. Five million MDA-MB-231 cells and 500 000 MRC5 cells were co-injected s.c. to Athymic nude mice. […] Mice were treated i.p. either with a loading dose of 2 mg of 224G11 Mab/mouse and then twice a week with 1 mg of antibody/mouse. Tumor volume was measured twice a week and calculated by the formula: π/6×length×width×height.

NCI-H441 [1] = test: Established xenograft NCI-H441 tumor model, 224G11 alone or with Navelbine (Example 15); assay type: in vivo, Swiss nude mice; conditions: 224G11 2 mg loading then 1 mg twice a week i.p.; Navelbine 8 mg/kg i.p. days 5, 12, 19
Procedure: Briefly, NCI-H441 cells from ATCC were routinely cultured in RPMI 1640 medium, 10% FCS and 1% L-Glutamine. Cells were split two days before engraftment so that they were in exponential phase of growth. Ten million NCI-H441 cells were engrafted in PBS to 7 weeks old Swiss nude mice. […] Mice were treated i.p. with a loading dose of 2 mg of 224G11/mouse and then twice a week, for 43 days, with 1 mg of antibody/mouse. The 9G4 MAb was used as an isotype control.
Navelbine® was given by i.p. injections at a dose of 8 mg/kg on days 5, 12, 19 post-cell injection. For combined therapy with both 224G11 and Navelbine®, the two compounds were administered separately. In this experience the 2 compounds were used at their optimal dosage. Tumor volume was measured twice a week and calculated by the formula: p/6×length×width×height.

HUVEC = HUVEC proliferation ([3H]thymidine); assay type: cell-based; conditions: HGF 20 ng/ml, 0.15 to 40 μg/ml
Procedure: For proliferation experiments, 7500 HUVEC were plated in each well of a 96 well plate previously coated with laminin. Cells were grown 24 hours of EMB-2 assay medium supplemented with 0.5% FBS and heparin. Then, MAbs to be tested (0.15 to 40 μg/ml) were added for 1 h before addition of 20 ng/ml of HGF. After 24 additional hours, cells were pulsed with 0.5 μCi of [^3H] Thymidine. The magnitude of [^3H] Thymidine incorporated was quantified by liquid scintillation counting. In This experiment the 9G4 MAb is an irrelevant antibody used as an IgG1 isotype control.

NCI-H441 [2] = test: In vivo combination of 224G11 and Docetaxel on NCI-H441 xenograft model; parameters: species or system Athymic nude mice; conditions: D11 to D35; Docetaxel 7.5 mg/kg i.p.
Procedure: NCI-H441 cells from ATCC were routinely cultured in RPMI 1640 medium, 10% FCS, 1% L-Glutamine. Cells were split two days before engraftment being in exponential phase of growth. Nine million NCI-H441 cells were engrafted to Athymic nude mice. […] Mice were treated i.p. either with a loading dose of 2 mg of 224G11 Mab/mouse and then twice a week with 1 mg of antibody/mouse or with 4 injections of Docetaxel (D5, D12, D19, D26) at 7.5 mg/kg. A third group administered with the combine treatment was also included. Docetaxel was given by i.p. injections. Tumor volume was measured twice a week and calculated by the formula: π/6×length×width×height and animal weights were monitored every day over the period of Docetaxel treatment. Statistical analysis was performed at each measured time using either a t-test or a Mann-Whitney test. […] Results are represented in FIG. 47.

c-Met = target: T1, c-Met (Homo sapiens, UniProt P08581); test: Phospho c-Met ELISA assay on A549 cells; assay type: cell-based; conditions: purified Mabs; for IC50, c-Met phosphorylation: 0.0015 to 30 μg/ml (0.01-200 nM); for agonist effect on c-Met phosphorylation, added alone / antagonist effect on c-Met phosphorylation in presence of HGF: A549, 30 μg/ml (200 nM), Example 18
T1 construct: endogenous in cells; host or cells: A549
Procedure: To determine the activity of anti-c-Met antibodies on c-Met phosphorylation a phospho c-Met ELISA assay was set-up. Briefly 500 000 A549 cells were seeded in each well of 6-well plates in F12K medium+10% FCS. 16 hours before HGF addition (100 ng/ml), cells were starved and each antibody to be tested was added at a final concentration of 30 μg/ml 15 minutes before ligand stimulation. 15 minutes after HGF addition, cold lysis buffer was added, cells were scraped and cell lysates collected and centrifuged at 13 000 rpm for 10 min at 4° C. Supernatants were quantified with a BCA kit (Pierce) and stored at −20° C. For ELISA assay, a goat anti-c-Met antibody (R&D ref. AF276) was used as a capture antibody (coating overnight at 4° C.) and after a saturation step (1 h at RT) with a TBS-BSA 5% buffer, […] of protein from the different cell lysates was added to each well of the 96-well plate. After a 90 minute-incubation time at RT, plates were washed four times and an anti-phospho-c-Met antibody (Rabbit anti-pY1230-1234-1235 c-Met) was added. After an additional 1 hour incubation time and 4 washes an anti-rabbit-HRP (Biosource) was added for 1 hour at RT and then Luminol substrate was added before evaluation the luminescence with a Mithras device. […] As described in the various examples presented in this patent, this weak basal effect has no consequences on the activity of antibodies in other in vitro and in vivo tests.
In example 3, the effect of anti-c-Met Mabs on phosphorylation was assessed with dosed supernatants from each hybridoma to be evaluated. The test has been performed again with purified 11E1 and 224G11 Mabs that have been evaluated either at a final concentration of 30 μg/ml (200 nM) or at a dose range from 0.0015 to 30 μg/ml (0.01-200 nM) in order to determine the IC50 of each antibody. The protocol used is the same as the one described in example 3.

c-Met-Fc-Tag His = target: T2, c-Met-Fc-Tag His (Homo sapiens, UniProt P08581); test: BIAcore epitope mapping on captured c-Met-Fc; assay type: binding
T2 construct: c-Met extracellular domain fusion protein (10-15 g/dose/mouse) (R&D Systems, Catalog #358MT); purchased R&D systems 358-MT-CF
T2 sequence (P08581 25-932 limits assumed): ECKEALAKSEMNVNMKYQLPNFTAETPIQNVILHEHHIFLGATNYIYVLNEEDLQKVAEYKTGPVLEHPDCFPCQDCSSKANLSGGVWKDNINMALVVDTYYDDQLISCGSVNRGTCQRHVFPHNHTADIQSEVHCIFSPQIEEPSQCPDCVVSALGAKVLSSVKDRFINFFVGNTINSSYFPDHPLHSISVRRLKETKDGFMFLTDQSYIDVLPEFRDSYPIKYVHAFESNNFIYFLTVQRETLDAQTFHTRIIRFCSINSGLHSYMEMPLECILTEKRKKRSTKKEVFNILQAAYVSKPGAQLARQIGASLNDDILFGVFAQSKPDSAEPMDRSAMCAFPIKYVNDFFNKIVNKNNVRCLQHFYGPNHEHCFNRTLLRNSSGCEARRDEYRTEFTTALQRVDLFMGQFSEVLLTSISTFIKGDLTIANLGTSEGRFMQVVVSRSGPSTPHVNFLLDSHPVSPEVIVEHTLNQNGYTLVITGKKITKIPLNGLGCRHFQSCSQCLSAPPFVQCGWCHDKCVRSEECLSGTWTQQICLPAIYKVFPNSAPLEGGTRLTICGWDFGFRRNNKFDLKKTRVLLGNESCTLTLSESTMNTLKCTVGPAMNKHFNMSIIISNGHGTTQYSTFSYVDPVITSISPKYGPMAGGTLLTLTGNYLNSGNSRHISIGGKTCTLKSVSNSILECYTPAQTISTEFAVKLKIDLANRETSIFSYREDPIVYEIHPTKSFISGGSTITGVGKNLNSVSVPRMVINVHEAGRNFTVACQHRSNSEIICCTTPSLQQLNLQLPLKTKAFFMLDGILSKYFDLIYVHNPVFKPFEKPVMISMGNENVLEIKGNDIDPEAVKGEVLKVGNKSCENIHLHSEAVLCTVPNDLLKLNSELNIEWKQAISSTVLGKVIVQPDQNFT
From the text: A couple of antibodies unable to bind at the same time on the antigen molecule are classified in the same group (identical or neighbouring binding sites). At the opposite when their respective binding sites are sufficiently distant to allow a simultaneous binding of both antibodies these later are classified into two different groups. In such experiments, the antigen is commonly used as the ligand (immobilized on the sensorchip) and the antibodies are used without any labelling as analytes (solution phase).
All the experiments described have been done on a BIAcore X instrument (GE Healthcare Europe GmbH). A CM5 sensorchip (BIAcore) activated by a mouse anti-Tag-6His Mab (R&D System ref. MAB050) has been prepared following the manufacturer instructions by using the amine coupling kit (BIAcore). The running buffer (HBS-EP) and regeneration buffer (Glycine, HCl) are from BIAcore. A recombinant soluble version of the human HGF receptor produced as a chimeric molecule c-Met-Fc-Tag His was from R&D systems (ref. 358-MT-CF). […]
The ability of an antibody “A” to block the binding of an antibody “B” is calculated by the ratio BIA/C=(R2A/B/R1B)×100: where R2A/B is the response corresponding to the binding of the MAb “B” when it was injected after Mab “A” and R1B is the response corresponding to the binding of the MAb “B” when it was injected first. […]

T1 sequence (P08581 25-1390): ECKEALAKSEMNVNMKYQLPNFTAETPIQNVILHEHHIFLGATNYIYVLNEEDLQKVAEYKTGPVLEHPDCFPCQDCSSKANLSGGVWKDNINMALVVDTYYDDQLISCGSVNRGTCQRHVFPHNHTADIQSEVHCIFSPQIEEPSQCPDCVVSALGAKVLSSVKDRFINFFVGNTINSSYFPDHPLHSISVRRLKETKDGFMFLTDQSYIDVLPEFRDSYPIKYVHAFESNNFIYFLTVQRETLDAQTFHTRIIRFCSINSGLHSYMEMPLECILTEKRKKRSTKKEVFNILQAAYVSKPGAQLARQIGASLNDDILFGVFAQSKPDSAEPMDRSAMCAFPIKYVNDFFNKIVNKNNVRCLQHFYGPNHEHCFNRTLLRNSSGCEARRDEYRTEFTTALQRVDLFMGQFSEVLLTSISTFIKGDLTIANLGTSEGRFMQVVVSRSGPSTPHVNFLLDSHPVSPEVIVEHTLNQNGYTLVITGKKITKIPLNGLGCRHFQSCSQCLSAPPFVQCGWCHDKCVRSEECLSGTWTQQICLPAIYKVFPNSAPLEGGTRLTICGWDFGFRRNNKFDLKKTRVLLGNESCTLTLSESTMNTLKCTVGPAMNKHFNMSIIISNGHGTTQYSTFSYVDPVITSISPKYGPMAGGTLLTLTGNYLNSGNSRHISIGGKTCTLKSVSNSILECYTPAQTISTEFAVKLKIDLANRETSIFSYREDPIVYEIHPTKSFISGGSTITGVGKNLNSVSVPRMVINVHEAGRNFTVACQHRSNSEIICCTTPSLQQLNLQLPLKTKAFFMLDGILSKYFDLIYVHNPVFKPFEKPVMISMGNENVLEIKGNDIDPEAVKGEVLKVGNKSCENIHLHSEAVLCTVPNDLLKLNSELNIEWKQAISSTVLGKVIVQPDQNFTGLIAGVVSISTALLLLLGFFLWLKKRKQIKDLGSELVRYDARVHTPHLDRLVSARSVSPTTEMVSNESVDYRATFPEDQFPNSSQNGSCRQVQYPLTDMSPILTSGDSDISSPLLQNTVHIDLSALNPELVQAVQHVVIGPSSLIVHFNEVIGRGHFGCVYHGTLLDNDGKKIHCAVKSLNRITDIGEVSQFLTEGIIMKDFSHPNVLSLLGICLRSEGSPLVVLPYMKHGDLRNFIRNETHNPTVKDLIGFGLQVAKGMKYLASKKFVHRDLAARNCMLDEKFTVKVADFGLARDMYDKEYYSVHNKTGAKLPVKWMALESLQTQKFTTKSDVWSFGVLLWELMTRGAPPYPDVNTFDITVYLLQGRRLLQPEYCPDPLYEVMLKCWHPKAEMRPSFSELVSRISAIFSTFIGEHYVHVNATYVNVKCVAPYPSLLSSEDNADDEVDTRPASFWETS

B1: 224G11: murine anti-c-Met monoclonal antibody, IgG1 kappa; heavy chain SEQ ID No. 18, light chain SEQ ID No. 21 (antibody, V domains shown)
VH: EVQLQQSGPELVKPGASVKISCKTSGYIFTAYTMHWVRQSLGESLDWIGGIKPNNGLANYNQKFKGKATLTVDKSSSTAYMDLRSLTSEDSAVYYCARSEITTEFDYWGQGTALTVSS
VL: DIVLTQSPASLAVSLGQRATISCRASESVDSYANSFMHWYQQKPGQPPKLLIYRASNLESGIPARFSGSGSRTDFTLTINPVEADDVATYYCQQSKEDPLTFGSGTKLEMK
modifications: mus musculus
median tumors growth compared to the control group (MDA-MB-231): significant difference in median tumors growth | anti-tumor activity (NCI-H441 [1]): as efficient as Navelbine® | inhibition of HGF-induced HUVEC proliferation (HUVEC): dramatic dose dependent inhibition | anti-tumor activity compared to the control group (NCI-H441 [2]): significant anti-tumor activity | IC50, c-Met phosphorylation (c-Met): nanomolar | agonist effect on c-Met phosphorylation, added alone (c-Met): no agonist effect | antagonist effect on c-Met phosphorylation in presence of HGF (c-Met): 75%

B2: 11E1: murine anti-c-Met monoclonal antibody, IgG1 kappa; heavy chain SEQ ID No. 62, light chain SEQ ID No. 63 (antibody, V domains shown)
VH: QVQLQQSGAELAKPGASVKMSCKASGYTFTSYWMNWVKQRPGQGLEWIGYINPTTGSTDYNQKLKDKATLTADKSSNTAYMQLSSLTSEDSAVYYCAIGGYGSWFAYWGQGTLVTVSA
VL: QIVLTQSPAIMSASPGEKVTLTCSASSSVSSTYLYWYQQKPGSSPKLWIYTTSILASGVPARFSGSGSGTSYSLTISSMETEDAASYFCHQWSSYPFTFGSGTKLDIK
modifications: mus musculus
BIA/C ratio, 2nd Ab (B) 5D5 (c-Met-Fc-Tag His; listed as antibody injected first (A), 5D5 second, 10 μg/ml, below 20% = blocks): 84.2% | epitope mapping, binding sites (c-Met-Fc-Tag His; sequential injections of 5D5 and 11E1 on captured c-Met-Fc): bind clearly to two distant sites | inhibition of HGF-induced HUVEC proliferation (HUVEC): dramatic dose dependent inhibition | IC50, c-Met phosphorylation (c-Met): nanomolar | agonist effect on c-Met phosphorylation, added alone (c-Met): no agonist effect | antagonist effect on c-Met phosphorylation in presence of HGF (c-Met): 87%
